# Target: Spike of SARS-CoV-2 reference D614G strain (hCoV-19/France/GE1973/2020) (SARS-CoV-2, UniProt P0DTC2 14-1273)
# Assay: cell-based or functional assay
binder,measurement,value
"Cv2.3132 IgG antibody (antibody, V domains shown, also called anti-HR2 antibody Cv2.3132) VH: EVQLVESGGGLVKPGGSLRLSCAASGFTFSDYYMSWIRQAPGKGLEWVSYISSSGSVQYYADSVKGRFTISRDNAKNSLYLQMNSLRAEDTAVYYCARYYYDSSGYWKRLDYWGQGTLVTVSS VL: not shown","IC50, S-Fuse neutralization assay",35.4 µg/mL

# — patent EP4442276A1 (INSTITUT PASTEUR, dated 2024)
